According to article PMC10920655, “Identification and characterization of CIM-1, a carbapenemase that adds to the family of resistance factors against last resort antibiotics” (Communications Biology, 2024):
≈ marks a conversion by molar mass, not a printed value.

Columns and labels:
C. indologenes #3362 = tested on: T1, C. indologenes #3362; assay: microbe, parasite or virus in culture; parameters: species or system C. indologenes 3362; E. coli C41(DE3); Broth microdilution MIC, ISO 20776-1/EUCAST, cation-adjusted Mueller Hinton broth, after IPTG induction; conditions: Chryseobacterium indologenes; native isolate carrying IND-2 and CIM-1
T1 construct: 3362
Protocol: (§1) The in vitro minimum inhibitory concentration (MIC) of β-lactams including penicillins, cephalosporins, and carbapenems in C. indologenes 3362 and E. coli C41(DE3) carrying different constructs were determined using the broth microdilution assay according to the International Standard ISO 20776-1 as recommended by EUCAST (the European Committee on Antimicrobial Susceptibility Testing). Briefly, bacterial cultures were grown aerobically at 37 °C to an OD600 0.4–0.6 in the presence of 25 μg/mL kanamycin, when necessary, before 1 mM IPTG (isopropyl-β-d-thiogalactopyranoside) was added. The induction was allowed for 2 h at 37 °C before the bacterial culture was diluted to 4 × 10^6 CFU/mL, and the microbroth dilution assays were performed. Cation-adjusted Mueller Hinton (CAMH) broth was used. All assays were repeated at least four times on four different days with different batches of cells.

[1] = tested on: T2, E. coli C41(DE3) with pET41a(+); assay: microbe, parasite or virus in culture; parameters: species or system C. indologenes 3362; E. coli C41(DE3); Broth microdilution MIC, ISO 20776-1/EUCAST, cation-adjusted Mueller Hinton broth, after IPTG induction; conditions: Escherichia coli; empty vector pET41a(+), IPTG induced
T2 construct: C41(DE3) empty vector pET41a(+), control
Protocol: as §1

IND-2ΔSig [2] = biological target: T3, IND-2ΔSig (Chryseobacterium indologenes, UniProt Q9ETN2); assay: steady-state hydrolysis, UV absorbance […] nm, plate reader; format: biochemical; conditions: read-out: Km (μM) / IND-2ΔSig; 50 mM HEPES pH 7.0, 10 μM ZnSO4, 25 ± 2 °C, 100 nM enzyme
T3 construct: gene blaIND-2b
T3 sequence (Q9ETN2 entry or part of it, stated change not applied): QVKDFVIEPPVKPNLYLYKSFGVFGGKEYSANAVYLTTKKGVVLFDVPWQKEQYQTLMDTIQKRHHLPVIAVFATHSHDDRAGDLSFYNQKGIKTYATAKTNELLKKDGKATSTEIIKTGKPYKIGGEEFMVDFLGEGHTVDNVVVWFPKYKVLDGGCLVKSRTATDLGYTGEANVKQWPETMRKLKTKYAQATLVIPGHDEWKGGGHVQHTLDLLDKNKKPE

[3] = tested on: CC(C)(O/N=C(\C(=O)N[C@@H]1C(=O)N2C(C(=O)[O-])=C(C[n+]3ccccc3)CS[C@H]12)c1csc(N)n1)C(=O)O; assay: purified protein; conditions: 50 mM HEPES pH 7.0, 10 μM ZnSO4, 25 ± 2 °C, 100 nM enzyme, 25.0 °C
[4] = tested on: CO/N=C(\C(=O)N[C@@H]1C(=O)N2C(C(=O)[O-])=C(C[N+]3(C)CCCC3)CS[C@H]12)c1csc(N)n1; assay: purified protein; conditions: 50 mM HEPES pH 7.0, 10 μM ZnSO4, 25 ± 2 °C, 100 nM enzyme, 25.0 °C
[5] = tested on: C[C@@H](O)[C@H]1C(=O)N2C(C(=O)O)=C(SCCN=CN)C[C@H]12; assay: purified protein; conditions: 50 mM HEPES pH 7.0, 10 μM ZnSO4, 25 ± 2 °C, 100 nM enzyme, 25.0 °C
[6] = tested on: C[C@@H](O)[C@H]1C(=O)N2C(C(=O)O)=C(S[C@@H]3CN[C@H](C(=O)N(C)C)C3)[C@H](C)[C@H]12; assay: purified protein; conditions: 50 mM HEPES pH 7.0, 10 μM ZnSO4, 25 ± 2 °C, 100 nM enzyme, 25.0 °C
[7] = tested on: C[C@@H](O)[C@H]1C(=O)N2C(C(=O)O)=C(S[C@@H]3CN[C@H](C(=O)Nc4cccc(C(=O)O)c4)C3)[C@H](C)[C@H]12; assay: purified protein; conditions: 50 mM HEPES pH 7.0, 10 μM ZnSO4, 25 ± 2 °C, 100 nM enzyme, 25.0 °C
[8] = tested on: C[C@@H](O)[C@H]1C(=O)N2C(C(=O)O)=C(S[C@@H]3CN[C@H](CNS(N)(=O)=O)C3)[C@H](C)[C@H]12; assay: purified protein; conditions: 50 mM HEPES pH 7.0, 10 μM ZnSO4, 25 ± 2 °C, 100 nM enzyme, 25.0 °C
Excerpt: steady-state hydrolysis, UV absorbance, plate reader on CIM-1ΔSig

[9] = tested on: O=C(Cc1cccs1)N[C@@H]1C(=O)N2C(C(=O)O)=C(/C=C/c3ccc([N+](=O)[O-])cc3[N+](=O)[O-])CS[C@H]12; assay: purified protein; conditions: 50 mM HEPES pH 7.0, 10 μM ZnSO4, 25 ± 2 °C, 100 nM enzyme, 25.0 °C
[10] = tested on: C[C@@H](O)[C@H]1C(=O)N2C(C(=O)O)=C(S[C@@H]3CN[C@H](C(=O)Nc4cccc(C(=O)O)c4)C3)[C@H](C)[C@H]12; assay: steady-state hydrolysis, UV absorbance, plate reader; format: biochemical, Klebsiella pneumoniae; conditions: 50 mM HEPES pH 7.0, 10 μM ZnSO4, 25 ± 2 °C, 100 nM enzyme, 25.0 °C
Excerpt: (§2) steady-state hydrolysis, UV absorbance, plate reader on NDM-4ΔSig

[11] = tested on: C[C@@H](O)[C@H]1C(=O)N2C(C(=O)O)=C(S[C@@H]3CN[C@H](CNS(N)(=O)=O)C3)[C@H](C)[C@H]12; assay: as above; format: biochemical, Klebsiella pneumoniae; conditions: 50 mM HEPES pH 7.0, 10 μM ZnSO4, 25 ± 2 °C, 100 nM enzyme, 25.0 °C
Excerpt: as §2

[12] = tested on: CC(C)(O/N=C(\C(=O)N[C@@H]1C(=O)N2C(C(=O)[O-])=C(C[n+]3ccccc3)CS[C@H]12)c1csc(N)n1)C(=O)O; assay: purified protein; format: biochemical, Klebsiella pneumoniae; conditions: 50 mM HEPES pH 7.0, 10 μM ZnSO4, 25 ± 2 °C, 100 nM enzyme, 25.0 °C
[13] = tested on: CO/N=C(\C(=O)N[C@@H]1C(=O)N2C(C(=O)[O-])=C(C[N+]3(C)CCCC3)CS[C@H]12)c1csc(N)n1; assay: purified protein; format: biochemical, Klebsiella pneumoniae; conditions: 50 mM HEPES pH 7.0, 10 μM ZnSO4, 25 ± 2 °C, 100 nM enzyme, 25.0 °C
[14] = tested on: C[C@@H](O)[C@H]1C(=O)N2C(C(=O)O)=C(SCCN=CN)C[C@H]12; assay: purified protein; format: biochemical, Klebsiella pneumoniae; conditions: 50 mM HEPES pH 7.0, 10 μM ZnSO4, 25 ± 2 °C, 100 nM enzyme, 25.0 °C
[15] = tested on: C[C@@H](O)[C@H]1C(=O)N2C(C(=O)O)=C(S[C@@H]3CN[C@H](C(=O)N(C)C)C3)[C@H](C)[C@H]12; assay: purified protein; format: biochemical, Klebsiella pneumoniae; conditions: 50 mM HEPES pH 7.0, 10 μM ZnSO4, 25 ± 2 °C, 100 nM enzyme, 25.0 °C
IND-2ΔSig [16] = biological target: T3, IND-2ΔSig; assay: steady-state hydrolysis, UV absorbance […] or […] nm, plate reader; conditions: read-out: Km (μM) / IND-2ΔSig; 50 mM HEPES pH 7.0, 10 μM ZnSO4, 25 ± 2 °C, 100 nM enzyme
IND-2ΔSig [17] = biological target: T3, IND-2ΔSig; assay: steady-state hydrolysis, UV absorbance, plate reader; conditions: read-out: Km (μM) / IND-2ΔSig; 50 mM HEPES pH 7.0, 10 μM ZnSO4, 25 ± 2 °C, 100 nM enzyme
NDM-4ΔSig = biological target: T4, NDM-4ΔSig (Klebsiella pneumoniae, UniProt C7C422, M154L); assay: steady-state hydrolysis, absorbance […] nm, plate reader; format: biochemical; conditions: read-out: Km (μM) / NDM-4ΔSig; 50 mM HEPES pH 7.0, 10 μM ZnSO4, 25 ± 2 °C, 100 nM enzyme
T4 construct: gene blaNDM-1
T4 sequence (C7C422 26-270 M154L): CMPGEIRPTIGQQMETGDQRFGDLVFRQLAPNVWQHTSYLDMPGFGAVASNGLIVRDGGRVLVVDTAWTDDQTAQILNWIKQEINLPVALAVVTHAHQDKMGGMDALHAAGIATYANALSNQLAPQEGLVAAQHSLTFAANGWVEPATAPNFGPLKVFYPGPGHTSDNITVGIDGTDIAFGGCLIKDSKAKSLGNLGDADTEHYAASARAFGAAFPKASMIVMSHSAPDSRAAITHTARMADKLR

`CO[C@@]1(NC(=O)Cc2cccs2)C(=O)N2C(C(=O)O)=C(COC(N)=O)CS[C@@H]21` [*Cefoxitin (2nd)] gave an MIC (C. indologenes #3362) of 32 mg/L (≈ 74.9 µM) and an MIC [1] of 0.5 mg/L (≈ 1.17 µM).

For `C[C@H]1[C@H](NC(=O)/C(=N\OC(C)(C)C(=O)O)c2csc(N)n2)C(=O)N1S(=O)(=O)O` [Aztreonam], the MIC (C. indologenes #3362) was over 512 mg/L and the MIC [1] was under 0.02 mg/L.

For `CC1(C)S[C@@H]2[C@H](NC(=O)[C@H](N)c3ccccc3)C(=O)N2[C@H]1C(=O)O` [Ampicillin], the MIC (C. indologenes #3362) was 512 mg/L (≈ 1470 µM) and the MIC [1] was 4 mg/L (≈ 11.4 µM).

For `CC(C)(O/N=C(\C(=O)N[C@@H]1C(=O)N2C(C(=O)[O-])=C(C[n+]3ccccc3)CS[C@H]12)c1csc(N)n1)C(=O)O` [Ceftazidime], the Km (IND-2ΔSig [2]) was over 1000 µM, the MIC (C. indologenes #3362) was 16 mg/L (≈ 29.3 µM) and the MIC [1] was 0.125 mg/L (≈ 0.229 µM).

Compound “CIM-1ΔSig (Chryseobacterium indologenes)” has a Km [3] of 324 ± 42 µM, a kcat [3] of 30 s⁻¹ and a kcat/Km [3] of 93000 M⁻¹ s⁻¹. It also gave a Km [4] of 538 ± 56 µM, a kcat [4] of 15.3 s⁻¹ and a kcat/Km [4] of 28000 M⁻¹ s⁻¹. For the same compound, the Km [5] was 94 ± 7 µM, the kcat [5] was 8.5 s⁻¹ and the kcat/Km [5] was 90000 M⁻¹ s⁻¹. For the same compound, the Km [6] was 143 ± 19 µM, the kcat [6] was 15 s⁻¹ and the kcat/Km [6] was 100000 M⁻¹ s⁻¹. For the same compound, the Km [7] was 91 ± 11 µM, the kcat [7] was 9.2 s⁻¹ and the kcat/Km [7] was 100000 M⁻¹ s⁻¹. It also gave a Km [8] of 175 ± 24 µM, a kcat [8] of 21 s⁻¹ and a kcat/Km [8] of 120000 M⁻¹ s⁻¹. It also gave a Km [9] of 33 ± 6 µM, a kcat [9] of 2.8 s⁻¹ and a kcat/Km [9] of 85000 M⁻¹ s⁻¹.

`CO/N=C(\C(=O)N[C@@H]1C(=O)N2C(C(=O)[O-])=C(C[N+]3(C)CCCC3)CS[C@H]12)c1csc(N)n1` [Cefepime] showed an MIC (C. indologenes #3362) of 2 mg/L (≈ 4.16 µM) and an MIC [1] of 0.031 mg/L (≈ 0.0645 µM).

“NDM-4ΔSig (Klebsiella pneumoniae; M154L)” showed a Km [10] of 159 ± 22 µM, a kcat [10] of 17 s⁻¹ and a kcat/Km [10] of 110000 M⁻¹ s⁻¹. For the same compound, the Km [11] was 253 ± 19 µM, the kcat [11] was 51 s⁻¹ and the kcat/Km [11] was 200000 M⁻¹ s⁻¹. For the same compound, the Km [12] was 93 ± 14 µM, the kcat [12] was 6.3 s⁻¹ and the kcat/Km [12] was 68000 M⁻¹ s⁻¹. For the same compound, the Km [13] was 136 ± 16 µM, the kcat [13] was 5.4 s⁻¹ and the kcat/Km [13] was 40000 M⁻¹ s⁻¹. For the same compound, the Km [14] was 151 ± 22 µM, the kcat [14] was 31 s⁻¹ and the kcat/Km [14] was 210000 M⁻¹ s⁻¹. For the same compound, the Km [15] was 163 ± 22 µM, the kcat [15] was 25 s⁻¹ and the kcat/Km [15] was 150000 M⁻¹ s⁻¹.

Compound `C[C@@H](O)[C@H]1C(=O)N2C(C(=O)O)=C(S[C@@H]3CN[C@H](C(=O)N(C)C)C3)[C@H](C)[C@H]12` [Meropenem] has an MIC (C. indologenes #3362) of 128 mg/L (≈ 334 µM), an MIC [1] of 0.031 mg/L (≈ 0.0808 µM) and a Km (IND-2ΔSig [16]) of over 1000 µM.

Work on `C[C@@H](O)[C@H]1C(=O)N2C(C(=O)O)=C(S[C@@H]3CN[C@H](C(=O)Nc4cccc(C(=O)O)c4)C3)[C@H](C)[C@H]12` [Ertapenem] yielded an MIC (C. indologenes #3362) of 64 mg/L (≈ 135 µM) and an MIC [1] of 0.016 mg/L (≈ 0.0336 µM).

With `Cc1nnc(SCC2=C(C(=O)O)N3C(=O)[C@@H](NC(=O)Cn4cnnn4)[C@H]3SC2)s1` [*Cefazolin (1st)] the MIC (C. indologenes #3362) was 256 mg/L (≈ 563 µM) and the MIC [1] was 2 mg/L (≈ 4.4 µM).

`C[C@@H](O)[C@H]1C(=O)N2C(C(=O)O)=C(S[C@@H]3CN[C@H](CNS(N)(=O)=O)C3)[C@H](C)[C@H]12` [Doripenem] was tested, and the MIC (C. indologenes #3362) was 128 mg/L (≈ 304 µM), the MIC [1] was 0.063 mg/L (≈ 0.15 µM) and the Km (IND-2ΔSig [17]) was over 1000 µM.

Compound `C[C@@H](O)[C@H]1C(=O)N2C(C(=O)O)=C(SCCN=CN)C[C@H]12` [Imipenem] has an MIC (C. indologenes #3362) of 128 mg/L (≈ 428 µM) and an MIC [1] of 0.5 mg/L (≈ 1.67 µM).

For `O=C(Cc1cccs1)N[C@@H]1C(=O)N2C(C(=O)O)=C(/C=C/c3ccc([N+](=O)[O-])cc3[N+](=O)[O-])CS[C@H]12` [Nitrocefin], the Km (NDM-4ΔSig) was 11 ± 1.8 µM.

“IND-2ΔSig (Chryseobacterium indologenes)” was tested, and the Km [5] was 728 ± 102 µM, the kcat [5] was 208 s⁻¹ and the kcat/Km [5] was 290000 M⁻¹ s⁻¹. It also gave a Km [7] of 1069 ± 105 µM, a kcat [7] of 127 s⁻¹ and a kcat/Km [7] of 120000 M⁻¹ s⁻¹. It also gave a Km [9] of 113 ± 6.9 µM, a kcat [9] of 78 s⁻¹ and a kcat/Km [9] of 680000 M⁻¹ s⁻¹.
